Source: patent publication US20090053227A1

Target: Kv3.2a (potassium channel Kv3.2a, KCNC2 transcript variant 1) (human) (UniProt Q96PR1)
Test: flow cytometry on unpermeabilized Kv3.2a-CHO 1A5 cells

Chain of UniProt Q96PR1 (Q96PR1 other isoform, or with tags, fused parts or gaps mutant): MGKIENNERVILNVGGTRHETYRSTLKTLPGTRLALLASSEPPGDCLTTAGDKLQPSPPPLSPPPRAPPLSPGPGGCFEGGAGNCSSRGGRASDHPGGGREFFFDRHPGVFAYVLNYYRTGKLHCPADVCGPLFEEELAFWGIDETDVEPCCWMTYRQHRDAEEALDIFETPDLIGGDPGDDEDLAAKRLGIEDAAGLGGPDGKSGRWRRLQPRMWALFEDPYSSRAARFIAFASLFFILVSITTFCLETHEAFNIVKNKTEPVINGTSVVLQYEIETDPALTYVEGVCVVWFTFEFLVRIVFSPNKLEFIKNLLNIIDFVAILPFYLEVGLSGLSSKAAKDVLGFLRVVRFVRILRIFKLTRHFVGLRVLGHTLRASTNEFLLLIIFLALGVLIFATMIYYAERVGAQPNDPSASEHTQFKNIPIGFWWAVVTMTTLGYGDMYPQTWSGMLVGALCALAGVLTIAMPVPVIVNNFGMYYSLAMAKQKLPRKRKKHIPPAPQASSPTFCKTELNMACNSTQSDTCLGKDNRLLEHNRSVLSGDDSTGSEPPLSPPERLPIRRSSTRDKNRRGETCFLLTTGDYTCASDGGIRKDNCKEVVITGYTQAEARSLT

Neg control
percentage shift into gate: 0.01%
